Measurements taken from publication PMC13090976 (Cell Stress & Chaperones, 2026).

B1: human CHIP-TPR (residues 21-154) [human] / biotin-GSGSGP(pT)IEEVD [modified: biotin, printed before the first residue; phosphothreonine (pT; Thr636 in HSPA1A numbering); biotin, printed before the first residue; phosphothreonine (pT; … (parent complex)
chain 1: EKSPSAQELKEQGNRLFVGRKYPEAAACYGRAITRNPLVAVYYTNRALCYLKMQQHEQALADCRRALELDGQSVKAHFFLGQCQLEMESYDEAIANLQRAYSLAKEQRLNFGDDIPSALRIAKKKRWNSIEERR
chain 2: GSGSGPTIEEVD

Variants of: B1
Assay: biolayer interferometry; read off a plot

Row | Kd [µM] | Variant
1 | ~1 | chain 1 EKSPSAQELKEQGNRLFVGRKYPEAAACYGRAITRNPLVAVYYTNRALCYLKMQQHEQALADCRRALELDGQSVKAHFFLGQCQLEMESYDEAIANLQRAYSLAKEQRLNFSDDIPSALRIAKKKRWNSIEERR [chain 1 G112S]
2 | ~6.6 | chain 1 EKSPSAQELKEQGNRLFVGRKYPEAAACYGRAITRNPLVAVYYTSRALCYLKMQQHEQALADCRRALELDGQSVKAHFFLGQCQLEMESYDEAIANLQRAYSLAKEQRLNFGDDIPSALRIAKKKRWNSIEERR [chain 1 N45S]
